Measured values reported in the supplement of paper PMC12764529.
± gives the half width of the 95% confidence interval.

Key:
[1] = folding stability dG unfold (combined trypsin and chymotrypsin); higher = more stable
Method: (§1)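 Folding stability of de novo designed mini-proteins (<80 aa, no Cys; designed by TrROS, TrMRF, ProteinMPNN and the joint model) was measured by cDNA display proteolysis with trypsin and chymotrypsin. Each protease was used at 11 concentrations in a threefold dilution series plus a no-protease condition. K50 was inferred by Bayesian fitting of sequencing counts, and dG unfold was derived against a sequence-predicted unfolded-state K50 (Tsuboyama et al. method). Sequences shown include variable-length N-terminal GS-type padding (SAGGSAGG...) inside a display construct carrying a PA tag. Rows were kept only if the AF2 dimer inter-PAE was >15, to exclude likely homo-oligomers.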

[2] = folding stability dG unfold from chymotrypsin proteolysis; higher = more stable
Method: as §1

## SAGGSAGGNPDTPVLTRKTSETFNIAPGEVVKFPDSSVVTPTEDGTYTIDKTITYNGPPDKPLTSAGGSAGG [r6_635_JUSTAS]
[1]
  folding stability dG unfold: -0.279 ± 0.23 kcal/mol
[2]
  folding stability dG unfold: 0.345 ± 0.13 kcal/mol

## SAGGSAGGSAGGGMKTKTTISTHPGPGGKTRVLVEVDPKKGLLTWRDPSDPSATTVVPLGSAGGSAGGSAGG [r7_992_JUSTAS]
[1]
  folding stability dG unfold: -0.446 ± 0.41 kcal/mol
[2]
  folding stability dG unfold: 0.511 ± 0.23 kcal/mol

## SAGGSAGGSTADALKDLPPGAKIEVEPHPIPNEDGWVYRQHYIKIEDPNKTVELPVIIPIPLPSAGGSAGGS [r12_892_TrROS]
[1]
  folding stability dG unfold: -0.0244 ± 0.37 kcal/mol
[2]
  folding stability dG unfold: -0.0369 ± 0.39 kcal/mol

## SAGMLVRIETLPPGAATEEVVPMTPEEAKEYLEAQGYTVSTDPANPTMTFSHPDATVTVTFEPVPADLRSAG [r5_248_JUSTAS]
[1]
  folding stability dG unfold: 0.365 ± 0.15 kcal/mol
[2]
  folding stability dG unfold: 0.79 ± 0.12 kcal/mol

## SAGGSAGGSKWKISVHPPNGNSWKIDPGDTIKELVDQMSKENGWPYHIHVSKEEAEKLGLKPVSAGGSAGGS [r12_379_TrROS]
[1]
  folding stability dG unfold: -0.0115 ± 0.16 kcal/mol
[2]
  folding stability dG unfold: 0.356 ± 0.13 kcal/mol

## SAGDLGEEALKDITENSTPVSPNETRTTTAVIKYKDKLVKITTTVKVPPESGTTVLSTPIEIFSPEELKSAG [r5_96_JUSTAS]
[1]
  folding stability dG unfold: < -1 kcal/mol
[2]
  folding stability dG unfold: -0.118 ± 0.33 kcal/mol

## SAGGSAKLRVAEADFVPGALLEAIEELEKAPAGAEVEVRPGDPLEPKERPVRFVVNEKGELLEVVGSAGGSA [r15_228_TrMRF]
[1]
  folding stability dG unfold: < -1 kcal/mol
[2]
  folding stability dG unfold: -0.619 ± 0.32 kcal/mol

## SAGGGPPGVVKPFTEETTFTVPLAGGPPVEVKTTTTTYTSADPAKRSLVTTTTTSPQNATTTTVTPLSSAGG [r13_654_JUSTAS]
[1]
  folding stability dG unfold: < -1 kcal/mol
[2]
  folding stability dG unfold: -0.2 ± 0.23 kcal/mol

## SAGGSGMWTPKQVKLLAEPGKSKTITIPGPVSEEEINALLNAGEPVIITLPDGTVLKAEKNTITLESAGGSA [r2_33_JUSTAS]
[1]
  folding stability dG unfold: -0.371 ± 0.15 kcal/mol
[2]
  folding stability dG unfold: 0.138 ± 0.084 kcal/mol

## SAGGSAGGSAGGKIEIDNIERFRPPNGNRYYKMTIRVEGNGKEREIWAPADDADNFKIESAGGSAGGSAGGS [r10_326_TrROS]
[1]
  folding stability dG unfold: -0.474 ± 0.25 kcal/mol
[2]
  folding stability dG unfold: -0.0266 ± 0.22 kcal/mol

## SAMKIYVAPGPFTVTARPALPGGEEITITTPITPEQVADPAFLEALVQALEDAGVPATYSILPAGVALPSAG [r14_60_JUSTAS]
[2]
  folding stability dG unfold: 0.597 ± 0.22 kcal/mol

## SAGGSAGGSAGPEEFEVLEMEAELNPETGEITVRFGSPEGEEITYTVTRPGELENLKLYASAGGSAGGSAGG [r11_711_TrMRF]
[2]
  folding stability dG unfold: -0.136 ± 0.39 kcal/mol

## SAGWVVIEIPKKEIPINPENVQIQEDNDRRYIFIPGEDADELKDQFPNKDVKIEPMPPEQMDRFMKQLSAGG [r19_271_TrROS]
[2]
  folding stability dG unfold: -0.242 ± 0.55 kcal/mol

## SAGGMPPNATLSGKRVDFKPVPHPDGKTLLKIYYNGKPIEEIEVPPGEAEKLIAELPENTNIVTLPESAGGS [r8_41_JUSTAS]
[2]
  folding stability dG unfold: -0.33 ± 0.58 kcal/mol

## SAGGSAMNVKSKETVEELFSESPEKVSIKKTTTYTFPNSKTVEITYYKPDGKKIATKNLPLSEYSSSAGGSA [r15_755_JUSTAS]
[2]
  folding stability dG unfold: -0.238 ± 0.59 kcal/mol

## SAGGESIVIPVKTLEEAKKVAEEIKEKFEKLGYKVEIFEEPETGRIIVKVTKKDKGTVSTTIITFPVPSAGG [r13_641_JUSTAS]
[2]
  folding stability dG unfold: 4.21 ± 0.76 kcal/mol

## SAGGSAGGSYLVKIEWRHNGKPIEQTIPIDPGELPLEDIASNFPGYPWKIKVMDPNGEERPFTSAGGSAGGS [r12_540_TrROS]
[2]
  folding stability dG unfold: -0.0033 ± 0.33 kcal/mol

## SAGGELLEDLNIKEIEVTEVKTYRNPENGMRMYEPTLTIKNPDGEKIKFTIEHMYDPGNPKPMIHIMSAGGS [r8_422_TrROS]
[2]
  folding stability dG unfold: -0.212 ± 0.52 kcal/mol

## SAGGSAGGSAGMTTYEGTDPEELREAVEAEAKARGVEIEITSVTTSPDGKYTLDVKVTPPSAGGSAGGSAGG [r11_304_JUSTAS]
[1]
  folding stability dG unfold: < -1 kcal/mol

## SAGGSAGGSAGGMRISIHHPKNGNPRHIPIDDIRNLPGPYKIHVEGPNPELAKEFLEQFSAGGSAGGSAGGS [r10_419_TrROS]
[1]
  folding stability dG unfold: < -1 kcal/mol

## SAMKPGTVVKVTIIPTEEKLIYNVPEKTVLKSSRTVDATVTKVSTPGSKVTLEIDLPDLPPGSEIELGLSAG [r14_412_JUSTAS]
[1]
  folding stability dG unfold: < -1 kcal/mol

## SAGGSAGGPKPAKIKEVPFKMRHPGNGQPHKMEIKEVRPDGMIEIDFPNGEEHRIPGMKIDEIESAGGSAGG [r6_435_TrROS]
[1]
  folding stability dG unfold: < -1 kcal/mol

## SAGGSAGGSAGGKIEVEEDPANGMYRVEIQFPENGKPIEVWVRPGRTLEKAKDKAKELMKSAGGSAGGSAGG [r7_138_TrROS]
[1]
  folding stability dG unfold: < -1 kcal/mol

## SAGGSAGGSAGGSGNGMKLVKKKEVVKEEGAVVKLPNGETIEVPPDETITVEIEEEVSLSAGGSAGGSAGGS [r4_26_JUSTAS]
[1]
  folding stability dG unfold: < -1 kcal/mol

## SAGGSAGGEVEEEALKVAEELRREGKTGPVEKTVDIVVKTPENVPIPLNITVTVEPPSGVVTVNSAGGSAGG [r6_102_JUSTAS]
[1]
  folding stability dG unfold: < -1 kcal/mol

## SAGGSMITKETFPGSEVLTYPEKGIRVELDDKNVTVYDIKPLPGKGEPVVLSSKTISKEELEKLIKSSAGGS [r8_174_JUSTAS]
[1]
  folding stability dG unfold: < -1 kcal/mol

## SAGGSGMAEAEALAAELAAATEKTPLGRTATVSVDTEVRPETGLTLLTVTTTGPGAPTTTPTTLPGRSAGGS [r16_812_JUSTAS]
[1]
  folding stability dG unfold: < -1 kcal/mol

## SAGGSAGGSAGGNKIVIPFEELEEARENGDPHKARKLVRERGMDPEDVTIEIITPEALKESAGGSAGGSAGG [r7_7_TrROS]
[1]
  folding stability dG unfold: < -1 kcal/mol

## SAGGPNFEIEPEWDPDNGIVKETIKVPPGMTPEAINDALEIEFPDGMEVQIKPIKDGTIKVYMRMPKSAGGS [r8_255_TrROS]
[1]
  folding stability dG unfold: < -1 kcal/mol

## SAGGSAGGSAGVFWRIRMPGHTIPIPIEGDLNEAKDYIRDEMREHHGEPIDPDNIEIEIVSAGGSAGGSAGG [r11_1028_TrROS]
[1]
  folding stability dG unfold: < -1 kcal/mol

## SAGGSAGGSAPKLKFETEPYPNGGYYHKVKIDLEGPKIPITIPVNNNQPMPIEDFAKHILKKSAGGSAGGSA [r18_111_TrROS]
[1]
  folding stability dG unfold: < -1 kcal/mol

## SAGGNKITIEVNMNPEEGYYMVPIEIPRRDPNGEPEKRKIEVMVPMSPNAQEKAKNLANKLGIDKIYSAGGS [r8_381_TrROS]
[1]
  folding stability dG unfold: < -1 kcal/mol

## WIRIPNGQPFRIKAKMKNPDGDDRKHTGKIPMEELGQKNGRPITPEDILDEIKEEARDHGAPVEDVEIEYYS [r1_338_TrROS]
[1]
  folding stability dG unfold: < -1 kcal/mol

## SAGGPPKKIEDIKIEDWRYDPENNQVTNTIELENDNGKEREIDVQMPNEDMEDMPPEEMLKAAKDFIDSAGG [r13_512_TrROS]
[1]
  folding stability dG unfold: < -1 kcal/mol

## SAGGSAGGSAGPKEPIYYRLRIEPPNGETREFEFPVGASVEDIAKEFNIPPGGRVELEPVSAGGSAGGSAGG [r11_340_TrROS]
[1]
  folding stability dG unfold: < -1 kcal/mol

## SAGGSAGGSAEEEKTVVEEKVEVKVEVKLKAPPPPEVTVSVELDEETNELKITASAEALKKSAGGSAGGSAG [r3_186_TrROS_Hall]
[1]
  folding stability dG unfold: < -1 kcal/mol

## SAGPKINLYRLPNGFLAAKSRSTRPDGKELGTWEKTYLVPGSGKPRTLELPIYDNEKGYVIYAYEEDYSAGG [r19_185_TrMRF]
[1]
  folding stability dG unfold: < -1 kcal/mol

## SAGGSAGGSPGNIPINIKIEPYDPDGGEKRKRTIPFPFQDPEGARRHLNKIADEFPPGWRVEISAGGSAGGS [r20_211_TrROS]
[1]
  folding stability dG unfold: < -1 kcal/mol

## SAGGSAGGSNPDNNFPPRPKEPIKFPGEGMKIWVYKNHGHIFMEPPPGERQMGTIDPEDGKIVSAGGSAGGS [r12_420_TrROS]
[1]
  folding stability dG unfold: < -1 kcal/mol

## SAGGSAGGSAGGGPGLSVTTTVLVPKDPSTSVLTVPLPPSATVTAVTPETNTVTVRTASSAGGSAGGSAGGS [r10_247_JUSTAS]
[1]
  folding stability dG unfold: < -1 kcal/mol

## SMTLEEALANPEKLAEELAPPPTPAVDEEIDIVDPLTNTTRPARATVLLEPGRRVIVLPEDGAEYPVDPESA [r9_548_JUSTAS]
[1]
  folding stability dG unfold: < -1 kcal/mol

## SAGGSAGGSAGGEPEPIPFRIKPHDEDGKKKGTFPINPLQKKGIPAEEFADKNGFEIEISAGGSAGGSAGGS [r10_153_TrROS]
[1]
  folding stability dG unfold: < -1 kcal/mol
